Measured values reported in FireProtDB (doi:10.1093/protein/12.3.251).

B1: Endo-1,4-beta-xylanase A, P26514 (parent)
chain: MGSYALPRSGVRRSIRVLLLALVVGVLGTATALIAPPGAHAAESTLGAAAAQSGRYFGTAIASGRLSDSTYTSIAGREFNMVTAENEMKIDATEPQRGQFNFSSADRVYNWAVQNGKQVRGHTLAWHSQQPGWMQSLSGSALRQAMIDHINGVMAHYKGKIVQWDVVNEAFADGSSGARRDSNLQRSGNDWIEVAFRTARAADPSAKLCYNDYNVENWTWAKTQAMYNMVRDFKQRGVPIDCVGFQSHFNSGSPYNSNFRTTLQNFAALGVDVAITELDIQGAPASTYANVTNDCLAVSRCLGITVWGVRDSDSWRSEQTPLLFNNDGSKKAAYTAVLDALNGGDSSEPPADGGQIKGVGSGRCLDVPDASTSDGTQLQLWDCHSGTNQQWAATDAGELRVYGDKCLDAAGTSNGSKVQIYSCWGGDNQKWRLNSDGSVVGVQSGLCLDAVGNGTANGTLIQLYTCSNGSNQRWTRT

Variants of: B1
Conditions: Streptomyces lividans; pH 6; Thermal; CD; sodium phosphate 10 mM; structure 1XAS; whole UniProt chain shown

Variant	Tm [°C]	change of melting temperature, mutant - wild type (higher = more stable) [°C]
W307A	63.3	-4.7
W307F	64.7	-3.3
W307H	60.7	-7.3
W126F	64	-4
W126A	70	2
W126H	67	-1
Y213A	63	-5
Y213F	67.1	-0.9
Y213S	69.6	1.6
W315F	68.8	0.8
W315H	68.2	0.2
W315A	72.1	4.1
